Results as given in the Human Domainome abundance scans (Beltran et al. 2025).
± gives the uncertainty stated by the source.

B1: Chromodomain-helicase-DNA-binding protein 4, residues 444 to 496; numbered along this chain, Q14839 (parent)
chain: EDDHHMEFCRVCKDGGELLCCDTCPSSYHIHCLNPPLPEIPNGEWLCPRCTCP

Variants of: B1
Assay: abundance fitness (aPCA) (normalised: wild type 0, dead -1); higher = more abundant; growth selection in yeast, the domain comes from the species named
Settings: Homo sapiens

Abundance fitness: each site, then its substitutions
I30: H -0.106 ± 0.061; K -0.047 ± 0.08; L -0.023 ± 0.043; M 0.026 ± 0.062; N -0.072 ± 0.062; Q -0.159 ± 0.06; R -0.016 ± 0.061; S -0.018 ± 0.046; T -0.044 ± 0.055; V 0.005 ± 0.054; W -0.238 ± 0.052; Y -0.102 ± 0.057
H31: A -0.138 ± 0.057; C -0.046 ± 0.068; D -0.197 ± 0.081; E -0.046 ± 0.05; F 0.017 ± 0.056; G 0.002 ± 0.06; I -0.217 ± 0.062; K 0.035 ± 0.05; L -0.194 ± 0.043; M -0.063 ± 0.067; N 0.106 ± 0.074; P -0.354 ± 0.059; Q -0.042 ± 0.063; R -0.042 ± 0.053; S -0.203 ± 0.051; T -0.042 ± 0.054; V -0.068 ± 0.059; W -0.285 ± 0.056; Y -0.097 ± 0.046
C32: A -0.882 ± 0.067; D -0.68 ± 0.1; E -0.66 ± 0.1; F -1.02 ± 0.059; I -0.898 ± 0.083; K -0.933 ± 0.094; L -0.99 ± 0.052; M -1 ± 0.079; N -1.15 ± 0.14; P -0.937 ± 0.074; Q -0.369 ± 0.085; R -0.857 ± 0.057; S -0.821 ± 0.052; V -0.914 ± 0.063; W -1.05 ± 0.1
L33: A -0.429 ± 0.057; C -0.421 ± 0.051; D -0.561 ± 0.092; E -0.685 ± 0.2; F -0.373 ± 0.048; G -0.598 ± 0.087; H -0.626 ± 0.053; I -0.085 ± 0.042; K -0.61 ± 0.055; M -0.326 ± 0.067; N -0.732 ± 0.061; P -0.703 ± 0.052; Q -0.602 ± 0.063; R -0.787 ± 0.073; S -0.54 ± 0.044; T -0.361 ± 0.05; W -0.954 ± 0.14
N34: A -0.08 ± 0.057; C -0.155 ± 0.067; D -0.114 ± 0.09; E -0.145 ± 0.091; F -0.158 ± 0.042; G -0.345 ± 0.075; H -0.262 ± 0.069; I -0.075 ± 0.051; K 0.052 ± 0.071; L -0.197 ± 0.046; M -0.127 ± 0.068; P -0.219 ± 0.054; R -0.205 ± 0.053; S 0.018 ± 0.048; T -0.014 ± 0.05; V -0.073 ± 0.061
P35: A -0.296 ± 0.057; D -0.262 ± 0.093; E -0.076 ± 0.088; F -0.45 ± 0.05; G -0.289 ± 0.067; H -0.386 ± 0.071; I -0.432 ± 0.078; K -0.199 ± 0.072; L -0.378 ± 0.046; N -0.302 ± 0.064; Q -0.226 ± 0.064; S -0.261 ± 0.042; T -0.198 ± 0.051; V -0.399 ± 0.059; W -0.593 ± 0.047; Y -0.301 ± 0.052
P36: A -0.035 ± 0.048; C -0.546 ± 0.088; D -0.323 ± 0.1; E -0.33 ± 0.1; F -0.604 ± 0.068; G -0.244 ± 0.064; I -0.195 ± 0.054; K 0.102 ± 0.073; L -0.458 ± 0.045; M -0.274 ± 0.052; N -0.294 ± 0.074; Q -0.026 ± 0.062; R -0.095 ± 0.046; S -0.1 ± 0.047; T -0.18 ± 0.049; V -0.22 ± 0.068; W -0.546 ± 0.086; Y -0.539 ± 0.06
L37: C -0.194 ± 0.053; E -0.249 ± 0.094; F -0.271 ± 0.056; I -0.049 ± 0.066; M -0.115 ± 0.05; N -0.244 ± 0.056; P 0.018 ± 0.044; Q -0.135 ± 0.054; R -0.233 ± 0.051; S -0.194 ± 0.042; T -0.23 ± 0.055; V -0.066 ± 0.053; W -0.248 ± 0.063; Y -0.274 ± 0.057
P38: A -0.014 ± 0.06; D -0.031 ± 0.064; E -0.096 ± 0.099; F -0.153 ± 0.054; G -0.196 ± 0.078; H -0.008 ± 0.061; I -0.059 ± 0.051; K 0.088 ± 0.068; L -0.115 ± 0.046; M -0.082 ± 0.043; N 0.065 ± 0.066; Q 0.085 ± 0.062; R -0.046 ± 0.049; S -0.075 ± 0.045; T -0.003 ± 0.05; V -0.113 ± 0.058; W -0.172 ± 0.08
E39: A 0.011 ± 0.073; C -0.178 ± 0.057; D -0.292 ± 0.099; F -0.056 ± 0.063; G -0.056 ± 0.06; H -0.132 ± 0.058; I -0.026 ± 0.045; K 0.121 ± 0.08; L -0.189 ± 0.048; M -0.095 ± 0.071; N 0.026 ± 0.058; P -0.152 ± 0.049; Q -0.052 ± 0.074; R -0.09 ± 0.057; S 0.021 ± 0.044; T 0.025 ± 0.051; V -0.025 ± 0.05; W -0.35 ± 0.086; Y -0.201 ± 0.068
I40: A 0.07 ± 0.06; C 0.019 ± 0.048; D -0.152 ± 0.11; E 0.056 ± 0.092; F -0.057 ± 0.07; G -0.007 ± 0.059; H 0.017 ± 0.052; K 0.11 ± 0.065; L 0.01 ± 0.041; M -0.106 ± 0.067; N -0.066 ± 0.057; P 0.112 ± 0.052; Q 0.01 ± 0.067; R 0.151 ± 0.052; S -0.023 ± 0.044; T -0.005 ± 0.05; V 0.055 ± 0.043; W -0.041 ± 0.071; Y 0.016 ± 0.059
P41: A -0.146 ± 0.059; C -0.135 ± 0.092; D -0.282 ± 0.097; E -0.2 ± 0.06; F -0.06 ± 0.1; G -0.133 ± 0.065; H -0.142 ± 0.053; I -0.106 ± 0.062; K -0.118 ± 0.067; L -0.228 ± 0.056; M -0.187 ± 0.05; N 0.029 ± 0.081; Q -0.18 ± 0.062; R -0.144 ± 0.053; S -0.226 ± 0.059; T -0.114 ± 0.046; V -0.154 ± 0.046; Y -0.463 ± 0.093
N42: A 0.037 ± 0.06; C -0.061 ± 0.054; D -0.085 ± 0.054; F -0.219 ± 0.053; G 0.038 ± 0.052; H -0.094 ± 0.055; I -0.096 ± 0.055; K 0.081 ± 0.063; L -0.077 ± 0.047; M -0.127 ± 0.06; P -0.065 ± 0.055; Q 0.005 ± 0.069; R -0.022 ± 0.053; S -0.063 ± 0.05; V 0.032 ± 0.044; W -0.253 ± 0.058; Y -0.197 ± 0.049
G43: A -0.079 ± 0.043; C -0.16 ± 0.054; D -0.151 ± 0.057; E -0.07 ± 0.047; F -0.188 ± 0.058; H -0.13 ± 0.067; I -0.144 ± 0.047; K 0.03 ± 0.07; L -0.201 ± 0.049; M -0.195 ± 0.067; N -0.068 ± 0.078; P -0.287 ± 0.058; Q -0.032 ± 0.074; R -0.044 ± 0.059; S -0.061 ± 0.05; V -0.075 ± 0.053
E44: A -0.07 ± 0.051; C -0.21 ± 0.068; D -0.156 ± 0.079; F -0.152 ± 0.08; G 0.03 ± 0.056; H -0.057 ± 0.061; I -0.119 ± 0.076; K 0.064 ± 0.073; L -0.024 ± 0.05; M -0.084 ± 0.071; N 0.095 ± 0.074; Q -0.104 ± 0.059; R -0.001 ± 0.042; S -0.018 ± 0.042; T -0.122 ± 0.063; V -0.143 ± 0.055; W -0.413 ± 0.076
W45: A -0.517 ± 0.057; C -0.616 ± 0.05; D -0.473 ± 0.072; E -0.517 ± 0.055; F -0.085 ± 0.084; G -0.487 ± 0.05; H -0.489 ± 0.065; I -0.533 ± 0.082; K -0.549 ± 0.066; L -0.591 ± 0.053; M -0.398 ± 0.063; N -0.428 ± 0.079; P -0.503 ± 0.046; Q -0.509 ± 0.065; R -0.446 ± 0.044; S -0.443 ± 0.048; T -0.43 ± 0.047; V -0.431 ± 0.054; Y -0.357 ± 0.053
L46: A -0.033 ± 0.04; D -0.252 ± 0.084; E -0.092 ± 0.054; I -0.012 ± 0.063; K 0.079 ± 0.061; N 0.211 ± 0.066; P -0.426 ± 0.044; Q -0.019 ± 0.053; R 0.008 ± 0.046; T -0.02 ± 0.047; V 0.106 ± 0.061; W -0.266 ± 0.064; Y -0.061 ± 0.07
C47: A -0.804 ± 0.074; E -0.606 ± 0.094; F -0.803 ± 0.055; G -0.652 ± 0.046; H -0.36 ± 0.052; I -0.697 ± 0.082; K -0.503 ± 0.074; L -0.639 ± 0.047; N -0.559 ± 0.087; P -0.552 ± 0.043; Q -0.627 ± 0.074; R -0.664 ± 0.041; S -0.598 ± 0.056; T -0.732 ± 0.063; V -0.605 ± 0.055; W -0.766 ± 0.056; Y -0.78 ± 0.057
P48: A -0.155 ± 0.046; C -0.815 ± 0.079; D -0.102 ± 0.05; E -0.042 ± 0.059; F -0.717 ± 0.078; G -0.284 ± 0.053; H -0.278 ± 0.055; I -0.941 ± 0.12; K -0.397 ± 0.051; L -0.622 ± 0.042; M -0.363 ± 0.072; N -0.54 ± 0.081; R -0.352 ± 0.042; S -0.21 ± 0.045; T -0.27 ± 0.047; V -0.504 ± 0.051; W -0.349 ± 0.051; Y -0.567 ± 0.06
R49: A 0.019 ± 0.055; D 0.145 ± 0.055; E -0.108 ± 0.079; F -0.089 ± 0.06; G 0.069 ± 0.041; H 0.047 ± 0.053; I 0.016 ± 0.072; L -0.101 ± 0.044; M -0.101 ± 0.054; N 0.04 ± 0.063; P -0.187 ± 0.049; Q 0.034 ± 0.043; S -0.095 ± 0.047; T 0.043 ± 0.047; V 0.006 ± 0.051; W -0.132 ± 0.051; Y -0.201 ± 0.086
